Results reported in the supplement of paper PMC7877785.
± gives the uncertainty stated by the source.

Assay: self-splicing fitness, log relative to wild type (ln ratio); higher = more splicing; Tetrahymena group I intron in knt gene, E. coli kanamycin selection, DiMSum; sequences stand for … in CUCUCU…GGAGGGAAAAGUUAUCAGGCAUGCACCUGGUAGCUAGUCUUUAAACCAAUAGAUUGCAUCGGUUUAAAAGGCAAGACCGUCAAAUUGCGGGAAAGGGGUCAACAGCCGUUCAGUACCAAGUCUCAGGGGAAACUUUGAGAUGGCCUUGCAAAGGGUAUGGUAAUAAGCUGACGGACAUGGUCCUAACCACGCAGCCAAGUCCUAAGUCAACAGAUCUUCUGUUGAUAUGGAUGCAGUUCACAGACUAAAUGUCGGUCGGGGAAGAUGUAUUCUUCUCAUAAGAUAUAGUCGGACCUCUCCUUAAUGGGAGCUAGCGGAUGAAGUGAUGCAACACUGGAGCCGCUGGGAACUAAUUUGUAUGCGAAAGUAUAUUGAUUAGUUUUGGAGUACUCGUGGUCG
Procedure, shortened: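 A randomised library covering all eight P1ex-region intron nucleotides was built with the intron in the knt kanamycin-resistance gene on pET-22b(+) and held in E. coli BL21(DE3). Cells were grown overnight at 37°C or 30°C on LB agar, with or without 25 μg/mL kanamycin, plus 100 μg/mL carbenicillin, 50 μM IPTG and 0.2% rhamnose, and pooled colonies were amplicon-sequenced on an Illumina HiSeq 2500. DiMSum fitness is the error-weighted combination of wild-type-normalised replicate fold changes, kanamycin versus none.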

Sequence	self-splicing fitness (ln) (30 °C)	self-splicing fitness (ln) (37 °C)
GGAGAGCAAUAUUACGGAGG	-2.93 ± 0.48	-0.819 ± 0.23
UACCAGCAAUAUUACGACUA	-0.413 ± 0.078	0.638 ± 0.098
GGGCAGCAAUAUUACGUAAA	-0.819 ± 0.09	-0.375 ± 0.11
GACCAGCAAUAUUACGUCAG	-4.79 ± 0.32	-2.85 ± 0.27
CCGCAGCAAUAUUACGCUAA	-3.22 ± 0.22	-2.55 ± 0.23
CUGCAGCAAUAUUACGCCAA	–	-1.67 ± 0.18
UGUGAGCAAUAUUACGAGGG	-3.77 ± 0.3	-3.54 ± 0.42
UGUCAGCAAUAUUACGGGAG	-2.78 ± 0.17	-1.68 ± 0.14
AGAUAGCAAUAUUACGAUCC	-1.68 ± 0.38	-0.656 ± 0.39
ACCUAGCAAUAUUACGAGCC	-2.81 ± 0.19	-2.37 ± 0.3
UAUUAGCAAUAUUACGUAAU	-3.24 ± 0.26	-1.93 ± 0.24
UUAUAGCAAUAUUACGAUCG	-0.934 ± 0.12	-0.581 ± 0.14
CUCAAGCAAUAUUACGCAUA	-3.29 ± 0.22	-3.07 ± 0.34
CGCUAGCAAUAUUACGAAAU	-3.5 ± 0.22	-2.01 ± 0.2
UUAGAGCAAUAUUACGCUUC	-2.81 ± 0.32	–
CGGCAGCAAUAUUACGACUU	-0.541 ± 0.06	-0.196 ± 0.08
GGUAAGCAAUAUUACGACUU	-0.311 ± 0.15	0.0617 ± 0.18
AGGCAGCAAUAUUACGUAGG	-2.04 ± 0.083	-1.64 ± 0.12
GAACAGCAAUAUUACGAAAU	-1.67 ± 0.12	-0.204 ± 0.14
UUCUAGCAAUAUUACGGUCG	-0.638 ± 0.067	0.00892 ± 0.09
GGACAGCAAUAUUACGCAGG	-1.45 ± 0.1	-0.578 ± 0.11
AGCCAGCAAUAUUACGGCCG	-1.29 ± 0.11	-0.262 ± 0.13
GGGUAGCAAUAUUACGAACG	-0.91 ± 0.08	-0.292 ± 0.1
GGUCAGCAAUAUUACGUCGC	-0.517 ± 0.11	0.282 ± 0.12
ACCGAGCAAUAUUACGAUUC	-3.37 ± 0.25	-3.31 ± 0.31
AUCCAGCAAUAUUACGGUUU	-1.04 ± 0.05	-0.324 ± 0.068

Sequence	self-splicing fitness (ln) (30 °C)	self-splicing fitness (ln) (37 °C)
GUGAAGCAAUAUUACGUGCA	0.391 ± 0.085	-0.0531 ± 0.11
AAGCAGCAAUAUUACGCUCA	0.661 ± 0.12	-0.0809 ± 0.2
UAGAAGCAAUAUUACGGUCU	-0.542 ± 0.11	0.318 ± 0.11
GUUUAGCAAUAUUACGAGUC	–	-0.725 ± 0.21
UAUCAGCAAUAUUACGCAUC	-1.87 ± 0.085	-0.409 ± 0.12
CUGAAGCAAUAUUACGUACC	-3.37 ± 0.36	–
CGUGAGCAAUAUUACGCACU	-0.892 ± 0.13	-0.687 ± 0.13
UCGAAGCAAUAUUACGGUGU	-2.05 ± 0.094	-1.62 ± 0.15
UUUUAGCAAUAUUACGCCGG	-1.28 ± 0.18	-0.833 ± 0.21
UGAGAGCAAUAUUACGAACA	-0.706 ± 0.27	-0.855 ± 0.2
CGAAAGCAAUAUUACGGAGA	-2.59 ± 0.29	-1.58 ± 0.37
AGUAAGCAAUAUUACGAUUC	-1.31 ± 0.14	-0.96 ± 0.22
UCUGAGCAAUAUUACGUAUU	-4.55 ± 0.25	-3.08 ± 0.25
CCUCAGCAAUAUUACGAUUC	-3.88 ± 0.43	-2.44 ± 0.49
AUCUAGCAAUAUUACGCCCC	-0.911 ± 0.15	0.223 ± 0.22
UAUCAGCAAUAUUACGGGUG	-0.736 ± 0.044	-0.102 ± 0.064
UAAAAGCAAUAUUACGCCUC	-2.82 ± 0.43	–
CGCCAGCAAUAUUACGCAGA	-3.57 ± 0.47	-2.53 ± 0.24
GGCUAGCAAUAUUACGCACU	-0.665 ± 0.1	-0.592 ± 0.1
AGGUAGCAAUAUUACGGGGU	-3.984 ± 0.027	-2.94 ± 0.038
ACAGAGCAAUAUUACGACAU	-3.246 ± 0.021	-2.17 ± 0.036
GUAUAGCAAUAUUACGUAUC	-2.07 ± 0.18	-0.978 ± 0.2
GGACAGCAAUAUUACGCGGA	-0.693 ± 0.081	0.416 ± 0.074
UACUAGCAAUAUUACGAGGG	-2.3 ± 0.13	-2.52 ± 0.17
UGUGAGCAAUAUUACGUGGU	-3.75 ± 0.23	-1.88 ± 0.17
GGACAGCAAUAUUACGUCUA	-0.35 ± 0.081	-0.114 ± 0.097

Sequence	self-splicing fitness (ln) (30 °C)	self-splicing fitness (ln) (37 °C)
GCGCAGCAAUAUUACGCAUG	-3.37 ± 0.28	-3.3 ± 0.33
ACACAGCAAUAUUACGGAAC	-4.07 ± 0.17	-2.49 ± 0.14
GCGUAGCAAUAUUACGACGA	-0.712 ± 0.15	-0.0139 ± 0.19
UAGCAGCAAUAUUACGAUUC	-3.06 ± 0.14	-2.94 ± 0.15
UGAAAGCAAUAUUACGUGCU	-2.79 ± 0.12	-1.32 ± 0.12
UAGGAGCAAUAUUACGCCCG	-1.53 ± 0.19	-0.352 ± 0.17
UUACAGCAAUAUUACGGUGC	-3.23 ± 0.21	-1.92 ± 0.17
AUUUAGCAAUAUUACGUCGA	-2.64 ± 0.29	-0.501 ± 0.19
GUGAAGCAAUAUUACGAUUA	0.198 ± 0.084	-0.124 ± 0.13
UCAAAGCAAUAUUACGAUAA	-1.43 ± 0.11	-0.335 ± 0.13
GAAGAGCAAUAUUACGAACA	-2.15 ± 0.23	-1.54 ± 0.25
GUCCAGCAAUAUUACGGGAG	-1.15 ± 0.063	-0.322 ± 0.082
ACUCAGCAAUAUUACGACGU	-0.498 ± 0.063	0.168 ± 0.082
GAGAAGCAAUAUUACGCGGA	-2.51 ± 0.22	-1.39 ± 0.17
AACCAGCAAUAUUACGGUGA	-1.19 ± 0.065	-0.538 ± 0.078
UAAGAGCAAUAUUACGGUGU	-2.19 ± 0.14	-3.27 ± 0.47
GCGCAGCAAUAUUACGCAGU	-2.63 ± 0.31	-1.04 ± 0.29
AGCUAGCAAUAUUACGAAAC	–	-1.95 ± 0.43
UGUGAGCAAUAUUACGGAAG	-2.97 ± 0.25	-1.76 ± 0.26
AAUCAGCAAUAUUACGCGGG	-1.33 ± 0.095	-1.42 ± 0.099
UGUUAGCAAUAUUACGGGCA	-0.664 ± 0.16	0.194 ± 0.18
CGCUAGCAAUAUUACGGCUA	-1.91 ± 0.31	–
CCGCAGCAAUAUUACGUAAA	-4.2 ± 0.25	-2.62 ± 0.2
AACCAGCAAUAUUACGAUUC	-1.63 ± 0.071	-0.153 ± 0.084
UGACAGCAAUAUUACGGCCA	-0.00432 ± 0.11	0.373 ± 0.13
